{"source": "patent US20180296632A1", "about": "(DIACCURATE, published 2018)", "binders": {"B1": {"name": "Peptide I (cyclic(2-NaphthylAla-Leu-Ser-2-NaphthylAla-Arg)) (peptide)", "peptide": "cyclo([2Nal]LS[2Nal]R)"}}, "molecular_target": "Recombinant PLA2GIB enzyme (sPLA2GIB produced in E. coli) (UniProt P04054 23-148)", "sequence (P04054 23-148 limits assumed)": "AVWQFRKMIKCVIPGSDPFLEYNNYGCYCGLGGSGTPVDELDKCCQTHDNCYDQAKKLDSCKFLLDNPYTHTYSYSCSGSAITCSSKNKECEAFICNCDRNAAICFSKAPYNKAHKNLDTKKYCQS", "test": "cell-based or functional assay", "note": "[ ]: non-standard residue; d: D form. 2Nal = N[C@@H](Cc1ccc2ccccc2c1)C(=O)O"}
{"binder": "B1", "values": [{"measurement": "IC50 of inhibition of PLA2GIB activity in the bioassay (inhibition of IL-7-induced nuclear translocation of phospho STAT5 in CD4 T cells, STED microscopy)", "result": "~4.9", "unit": "µM"}]}
